Assay results as given in paper PMC3795569, “Crystal structure of the N-terminal domain of MinC dimerized via domain swapping” (Journal of Synchrotron Radiation, 2013).

Biological target: the molecule itself
Experiment: SEC; size-exclusion chromatography of EcoMinCNTD in a broad range of protein concentrations

B1: Escherichia coli MinC N-terminal domain (EcoMinCNTD), residues 1-105 (domain or fragment, UniProt P18196 1-105, looked up)
chain: MSNTPIELKGSSFTLSVVHLHEAEPKVIHQALEDKIAQAPAFLKHAPVVLNVSALEDPVNWSAMHKAVSATGLRVIGVSGCKDAQLKAEIEKMGLPILTEGKEKA
notes: MinC (septum site-determining protein), Escherichia coli, N-terminal domain, residues 1-105; amplified from E. coli genomic DNA (ATCC No. 700926D-5); Cloned into a modified pET-28a vector (BamHI/XhoI); The printed molecular weight is 11863 Da; also called unfused-EcoMinCNTD; source: E. coli BL21 (DE3), purified (Ni-NTA, TEV cleavage, size-exclusion chromatography)
stoichiometry N: 2
